In the supplement of paper PMC10724198:
± gives the standard deviation of the averaged measurements.

What follows are sequences tested on Saccharomyces cerevisiae (assay: protein stability index of tFT-peptide fusion (C-terminal peptide) (PSI (0-1 scale)); higher = more stable (slower turnover)). Conditions: genetic background: wild type; temperature: 30 C.
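Further: PSI is a weighted mean of sequencing reads over stability bins, variants kept only with over 10 reads, mCherry proximal and sfGFP distal, peptide attached via GGGS linker.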

Sequence | protein stability index
PPPSRPLLPFPP | 0.706 ± 0.012
QTPPPRLPPRPP | 0.669 ± 0.062
LSPGCLFLLPFL | 0.701 ± 0.066
GECAELSSVGGG | 0.664 ± 0.035
RSPGSVSVGGVV | 0.615 ± 0.021
LPPLPPSPPSPR | 0.697 ± 0.029
APPQFPLTPPPP | 0.647 ± 0.011
LLRTHTTPKLGG | 0.661 ± 0.051
HISRTLVDADIG | 0.66928 ± 8e-05
CLRRGGAGDGAS | 0.678 ± 0.011
CLLSRGLTVSYS | 0.626 ± 0.012
ASLTPFFLCSIF | 0.649 ± 0.0073
ASHDIFWAGSRE | 0.766 ± 0.092
CSPSYTCRIISF | 0.7076 ± 0.006
AYTSVSVDHLIH | 0.673 ± 0.0069
YGIGVRMPRSYW | 0.709 ± 0.035
GGYLLAGEGTFA | 0.702 ± 0.0094
KTQKKKKKNKNF | 0.51 ± 0.028
SHLGPYPAPARP | 0.7185 ± 0.006
GSNLQWNSKREE | 0.6165 ± 0.0016
RPVVASRQASHS | 0.703 ± 0.021

Sequence | protein stability index
DNCIANLESGSL | 0.691 ± 0.008
LFSPPPPPIPSP | 0.73 ± 0.0078
SMCAFRPFPFSS | 0.70891 ± 0.00011
GGGGGFGVVRVG | 0.651 ± 0.032
PPIPSLPPASFP | 0.69 ± 0.044
GNVRRVYMDYQG | 0.735 ± 0.039
GYTSRGISFLRA | 0.698 ± 0.042
EERGGDNVTVCG | 0.745 ± 0.031
SLFFFNFPLCAL | 0.559 ± 0.019
HPFGHSFLTAPF | 0.793 ± 0.16
PPPSRTPPLNPR | 0.741 ± 0.096
PLRALLPTRCNL | 0.732 ± 0.067
LVFRSGWVSLIG | 0.641 ± 0.044
ASTLFDCHVLGA | 0.697 ± 0.039
RLPPPPPPSPHL | 0.711 ± 0.054
LSSSWDLTHFDC | 0.714 ± 0.033
RLLPVTISSSLS | 0.702 ± 0.031
SCGWWWGGGAGG | 0.656 ± 0.041
WVFRHSTMNNEN | 0.672 ± 0.094
RGLGGWAECGRW | 0.76 ± 0.05
VACYVDWSQNHR | 0.728 ± 0.06

Sequence | protein stability index
RPRKPGLACKHL | 0.652 ± 0.034
VRYGSHRNMSLL | 0.819 ± 0.053
CMFATFLFVPPL | 0.591 ± 0.014
EWVKFCFPIVQS | 0.651 ± 0.048
RLELRVPPSFAH | 0.715 ± 0.0095
RKRASHALTPPC | 0.732 ± 0.024
DGRTYGHYKVVA | 0.697 ± 0.027
VEDRTTNVLNIT | 0.682 ± 0.027
RLYPVPARPSPS | 0.629 ± 0.046
PALPHQPLPRPQ | 0.797 ± 0.023
GKEQIEKKIEGI | 0.589 ± 0.009
QGLPLCVVQALQ | 0.605 ± 0.042
WSPVPVPPPLPT | 0.722 ± 0.083
AGSSGVRLSEFP | 0.671 ± 0.11
LPPTPSSPPPPL | 0.709 ± 0.06
SPPPLPPSPLSS | 0.701 ± 0.046
TGPSLDRALLDL | 0.6412 ± 0.002
PPLSPPLPPPPS | 0.7188 ± 0.0062
GLLRVGGFWSCL | 0.747 ± 0.019
APPPHPRHPTHS | 0.777 ± 0.089
KRRRWFILSGPL | 0.685 ± 0.008

Sequence | protein stability index
SPFPAPCVFPSR | 0.761 ± 0.1
KTKERKKQMRKI | 0.6822 ± 0.0042
PPLPPPRYLPPT | 0.7124 ± 0.0027
QVFFDTSDHRMG | 0.72 ± 0.029
VGGRDDGFVWEG | 0.667 ± 0.031
HTTPGPYVLPWP | 0.807 ± 0.06
SRGGGRSEGGEG | 0.695 ± 0.033
GGREWWLSDGTV | 0.75 ± 0.033
PIGLCLYNSPRF | 0.662 ± 0.035
HARFRPRKAVGD | 0.67 ± 0.042
KAKKLRKKNENK | 0.671 ± 0.038
PSPPHLHLHLAP | 0.665 ± 0.013
YYAGFTAFGSLA | 0.709 ± 0.079
VLRRRPNDMRKF | 0.6939 ± 0.0062
GSLLVCGMVAGM | 0.5236 ± 0.0046
AFLVGDVFGRLL | 0.602 ± 0.016
RTKNMRRIKEKG | 0.688 ± 0.046
RGGGGGGIGFPR | 0.681 ± 0.066
